# Patent US20250320281A1
# How the values were obtained:
# Experiment in all cases: cell-based or functional assay
# [1] = target: HIV-1 Env of isolate 6535.3 (HIV-1)
# [2] = target: HIV-1 Env of isolate LAVI_C3 (HIV-1)
# [3] = target: HIV-1 Env of isolate MGRM-D-008 (clade D pseudovirus) (HIV-1)
# [4] = target: HIV-1 Env of isolate MGRM-G-001 (HIV-1)
# [5] = target: HIV-1 Env of isolate MGRM-G-019 (HIV-1)
# [6] = target: HIV-1 Env of pseudovirus MGRM-AG-001 (clade CRF_AG) (HIV-1)
# [7] = target: HIV-1 Env of pseudovirus MGRM-AG-002 (clade CRF_AG) (HIV-1)
# [8] = target: HIV-1 Env of pseudovirus MGRM-F1-012 (HIV-1)
# [9] = target: HIV-1 Env of pseudovirus MGRM-G-017 (HIV-1, clade G isolate MGRM-G-017)
# [10] = target: HIV-1 IAVI-C3 envelope glycoprotein (Env) on pseudovirus (HIV-1)
# [11] = target: HIV-1 MGRM-A-010 Env (pseudovirus, clade A) (HIV-1)
# [12] = target: HIV-1 Env of isolate 98CN006 (pseudovirus) (HIV-1)
# [13] = target: HIV-1 Env of isolate JR-CSF (subtype B pseudovirus) (HIV-1) (UniProt P20871)
# [14] = target: HIV-1 Env of isolate MGRM-AE-005 (HIV-1)
# [15] = target: HIV-1 Env of isolate MGRM-AG-002 (HIV-1)
# [16] = target: HIV-1 Env of isolate MGRM-Chronic-B-004 (subtype B pseudovirus) (HIV-1)
# [17] = target: HIV-1 Env of isolate MGRM-Chronic-B-011 (subtype B pseudovirus) (HIV-1)
# [18] = target: HIV-1 Env of isolate MGRM-D-005 (pseudovirus) (HIV-1)
# [19] = target: HIV-1 Env of isolate MGRM-D-008 (pseudovirus) (HIV-1)
# [20] = target: HIV-1 Env of isolate MGRM-D-028 (pseudovirus) (HIV-1)
# [21] = target: HIV-1 Env of isolate MGRM-F1-004 (pseudovirus) (HIV-1)
# [22] = target: HIV-1 Env of isolate MGRM-F1-008 (pseudovirus) (HIV-1)
# [23] = target: HIV-1 Env of isolate MGRM-F1-018 (HIV-1)
# [24] = target: HIV-1 Env of isolate SF162 (subtype B pseudovirus) (HIV-1) (UniProt P19550)
# [25] = target: HIV-1 APV17 Env (pseudovirus) (HIV-1)
# [26] = target: HIV-1 Env of isolate MGRM-AE-001 (subtype AE) (HIV-1)
# [27] = target: HIV-1 Env of isolate MGRM-AE-002 (subtype AE) (HIV-1)
# [28] = target: HIV-1 Env of isolate 92UG005 (HIV-1)
# [29] = target: HIV-1 Env of isolate 92WR009 (HIV-1)
# [30] = target: HIV-1 Env of isolate 93IN905 (subtype C) (HIV-1)
# [31] = target: HIV-1 Env of isolate MG RM-D-011 (HIV-1)
# [32] = target: HIV-1 Env of isolate MG RM-D-016 (HIV-1)
# [33] = target: HIV-1 Env of isolate MGRM-A-001 (HIV-1)
# [34] = target: HIV-1 Env of isolate MGRM-AG-005 (subtype AG) (HIV-1)
# [35] = target: HIV-1 Env of isolate PVO.4 (subtype B) (HIV-1)
# [36] = target: HIV-1 Env of pseudovirus isolate MGRM-G-028 (HIV-1)
# [37] = target: HIV-1 envelope glycoprotein (Env) of isolate MGRM-C-013 (HIV-1)
# [38] = target: HIV-1 envelope glycoprotein (Env) of isolate MGRM-C-022 (HIV-1)
# [39] = target: HIV-1 envelope glycoprotein (Env) of isolate MGRM-C-024 (HIV-1)
# Chain of 4970_K22 (PGT-144) (antibody) (VH): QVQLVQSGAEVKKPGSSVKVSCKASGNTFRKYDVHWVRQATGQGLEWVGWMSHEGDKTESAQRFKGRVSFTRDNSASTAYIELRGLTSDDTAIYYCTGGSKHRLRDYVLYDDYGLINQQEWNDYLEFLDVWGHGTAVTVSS
# Chain of 4970_K22 (PGT-144) (antibody) (VL): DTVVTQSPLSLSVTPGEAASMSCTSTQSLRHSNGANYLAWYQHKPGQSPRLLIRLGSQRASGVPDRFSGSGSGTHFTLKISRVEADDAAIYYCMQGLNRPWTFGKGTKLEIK
# Chain of 4993_K13 (PGT-141) (antibody) (VH): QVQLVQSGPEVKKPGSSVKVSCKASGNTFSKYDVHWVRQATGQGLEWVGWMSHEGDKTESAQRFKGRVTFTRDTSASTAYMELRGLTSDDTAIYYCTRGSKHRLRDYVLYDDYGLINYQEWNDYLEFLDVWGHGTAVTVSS
# Chain of 4993_K13 (PGT-141) (antibody) (VL): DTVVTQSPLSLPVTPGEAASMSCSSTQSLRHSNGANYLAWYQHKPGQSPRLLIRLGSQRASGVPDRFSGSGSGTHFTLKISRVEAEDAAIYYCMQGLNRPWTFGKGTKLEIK
# Chain of 4980_N08 (PGT-143) (antibody) (VH): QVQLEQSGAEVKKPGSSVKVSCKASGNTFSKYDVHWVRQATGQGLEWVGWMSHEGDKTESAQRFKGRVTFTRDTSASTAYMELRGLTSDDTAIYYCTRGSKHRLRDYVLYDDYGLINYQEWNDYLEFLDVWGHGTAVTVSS
# Chain of 4980_N08 (PGT-143) (antibody) (VL): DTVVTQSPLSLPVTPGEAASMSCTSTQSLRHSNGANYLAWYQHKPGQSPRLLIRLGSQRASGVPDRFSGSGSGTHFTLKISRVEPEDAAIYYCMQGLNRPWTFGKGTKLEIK
# Chain of 5329_C19 (PGT-136) (antibody) (VH): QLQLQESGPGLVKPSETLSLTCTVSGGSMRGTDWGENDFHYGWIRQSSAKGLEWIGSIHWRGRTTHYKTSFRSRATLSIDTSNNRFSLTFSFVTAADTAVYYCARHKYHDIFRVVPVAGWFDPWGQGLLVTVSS
# Chain of 5329_C19 (PGT-136) (antibody) (VL): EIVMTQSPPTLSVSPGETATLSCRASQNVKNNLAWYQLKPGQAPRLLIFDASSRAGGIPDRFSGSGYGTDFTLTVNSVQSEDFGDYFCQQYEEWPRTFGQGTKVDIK
# Chain of 5345_I01 (PGT-137) (antibody) (VH): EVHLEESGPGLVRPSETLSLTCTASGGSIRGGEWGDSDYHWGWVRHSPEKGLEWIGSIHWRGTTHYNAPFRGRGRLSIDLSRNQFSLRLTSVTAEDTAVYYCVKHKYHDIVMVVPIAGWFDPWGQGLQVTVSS
# Chain of 5345_I01 (PGT-137) (antibody) (VL): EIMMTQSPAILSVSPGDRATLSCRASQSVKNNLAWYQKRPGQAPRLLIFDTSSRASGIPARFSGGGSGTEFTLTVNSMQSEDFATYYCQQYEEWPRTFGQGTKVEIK
# Chain of 4995_E20 (PGT-142) (antibody) (VH): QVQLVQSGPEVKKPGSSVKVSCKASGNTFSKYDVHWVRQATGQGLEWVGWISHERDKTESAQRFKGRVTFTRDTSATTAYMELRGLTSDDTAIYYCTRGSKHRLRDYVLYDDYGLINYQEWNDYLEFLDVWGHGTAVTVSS
Substance,"IC50 (µg/mL), pseudovirus neutralization [4] [µg/mL]","IC50 (µg/mL), pseudovirus neutralization [5] [µg/mL]","IC50 (neutralizing activity, pseudovirus) [25] [mg/L]","IC50 (µg/mL), pseudovirus neutralization [26] [µg/mL]","IC50 (µg/mL), pseudovirus neutralization [27] [µg/mL]","IC50 (µg/mL), pseudovirus neutralization [28] [µg/mL]",neutralization IC50 [1] [mg/L],IC50 [29] [mg/L],IC50 neutralization [30] [mg/L],"IC50 (µg/mL), pseudovirus neutralization [31] [µg/mL]","IC50 (µg/mL), pseudovirus neutralization [32] [µg/mL]",IC50 [33] [mg/L],"IC50 (µg/mL), pseudovirus neutralization [34] [µg/mL]",IC50 neutralization [35] [mg/L],"IC50 (µg/mL), pseudovirus neutralization [36] [µg/mL]","IC50 (µg/mL), pseudovirus neutralization [37] [µg/mL]","IC50 (µg/mL), pseudovirus neutralization [38] [µg/mL]","IC50 (µg/mL), pseudovirus neutralization [39] [µg/mL]",also measured
1496_C09 (PG9) (TCN-109) (antibody),0.166,14.6,–,–,–,–,–,–,–,–,–,–,–,–,–,–,–,–,"IC50 (µg/mL), pseudovirus neutralization [1]: 1.05 µg/mL; IC50 [2]: 1.45 mg/L; IC50 (µg/ml), pseudovirus neutralization [3]: 6.86 µg/mL; IC50 [6]: 8.83 mg/L; IC50 [7]: 0.04 mg/L; IC50 (µg/ml), pseudovirus neutralization [8]: 0.01 µg/mL; IC50 (µg/ml), pseudovirus neutralization [9]: 0.03 µg/mL; IC50, pseudovirus neutralization [10]: 12.9 mg/L; IC50 neutralization [11]: 0.0375 mg/L"
4838_L06 (PGT-121) (antibody),–,–,–,–,–,–,–,–,–,–,–,–,–,–,–,–,–,–,"IC50, pseudovirus neutralization [12]: 0.01 mg/L; IC50 (µg/mL), pseudovirus neutralization [13]: 0.027 µg/mL; IC50 [14]: > 50 mg/L; IC50 [15]: > 50 mg/L; IC50 (µg/mL), pseudovirus neutralization [16]: 0.009 µg/mL; IC50 (µg/mL), pseudovirus neutralization [17]: > 50 µg/mL; IC50, pseudovirus neutralization [18]: > 50 mg/L; IC50, pseudovirus neutralization [19]: > 50 mg/L; IC50, pseudovirus neutralization [20]: 0.009 mg/L; IC50, pseudovirus neutralization [21]: 1.67 mg/L; IC50, pseudovirus neutralization [22]: > 50 mg/L; IC50 (µg/mL), pseudovirus neutralization [23]: 0.04 µg/mL; IC50 (µg/mL), pseudovirus neutralization [24]: 0.005 µg/mL"
4970_K22 (PGT-144) (antibody),> 50,> 50,5.12,> 50,> 50,–,–,–,–,–,–,–,–,–,–,–,–,–,–
4980_N08 (PGT-143) (antibody),0.423,4.77,0.618,> 50,> 50,–,–,–,–,–,–,–,–,–,–,–,–,–,–
4993_K13 (PGT-141) (antibody),0.392,20.3,0.616,> 50,> 50,> 50,–,–,–,–,–,–,–,–,–,–,–,–,–
4995_E20 (PGT-142) (antibody),0.362,5.95,0.393,> 50,> 50,–,–,–,–,–,–,–,–,–,–,–,–,–,–
5114_A19 (PGT-128) (antibody),–,–,–,0.069,0.522,0.018,0.011,0.812,0.009,0.007,> 50,> 50,0.037,0.005,0.008,> 50,0.042,> 50,–
5136_H01 (PGT-131) (antibody),–,–,–,4.8,> 50,0.854,0.056,3.12,0.177,0.756,> 50,> 50,1.04,> 50,0.466,> 50,0.78,> 50,–
5145_B14 (PGT-127) (antibody),–,–,–,–,–,–,–,–,–,–,–,–,–,–,0.032,–,–,–,"IC50, pseudovirus neutralization [12]: 0.067 mg/L; IC50 (µg/mL), pseudovirus neutralization [13]: 0.018 µg/mL; IC50 [14]: > 50 mg/L; IC50 [15]: > 50 mg/L; IC50 (µg/mL), pseudovirus neutralization [16]: 0.018 µg/mL; IC50 (µg/mL), pseudovirus neutralization [17]: 0.297 µg/mL; IC50, pseudovirus neutralization [18]: 6.02 mg/L; IC50, pseudovirus neutralization [19]: > 50 mg/L; IC50, pseudovirus neutralization [20]: > 50 mg/L; IC50, pseudovirus neutralization [21]: 0.068 mg/L; IC50, pseudovirus neutralization [22]: > 50 mg/L; IC50 (µg/mL), pseudovirus neutralization [23]: 3.59 µg/mL; IC50 (µg/mL), pseudovirus neutralization [24]: 0.019 µg/mL"
5147_N06 (PGT-130) (antibody),–,–,–,1,1.53,0.959,0.031,1.27,0.02,0.019,> 50,> 50,0.54,5.17,0.074,> 50,0.127,> 50,"Neutralization by PGT-130, IC50 [25]: > 10 mg/L; Neutralization by PGT-130, IC80 [25]: > 10 mg/L; Neutralization by PGT-130, IC90 [25]: > 10 mg/L; Neutralization by PGT-130, IC95 [25]: > 10 mg/L; neutralization IC50 (pseudovirus) [25]: > 10 mg/L; IC50 neutralization [11]: 0.0054 mg/L"
5329_C19 (PGT-136) (antibody),–,–,> 10,> 50,> 50,> 50,> 50,> 50,0.011,> 50,> 50,> 50,> 50,> 50,> 50,> 50,> 50,> 50,IC50 neutralization [11]: > 10 mg/L
5343_B08 (PGT-135) (antibody),–,–,> 10,> 50,> 50,> 50,> 50,> 50,0.011,23.5,> 50,> 50,> 50,> 50,> 50,> 50,> 50,> 50,IC50 neutralization [11]: > 10 mg/L
5345_I01 (PGT-137) (antibody),–,–,–,> 50,> 50,> 50,> 50,> 50,0.042,6.3,> 50,> 50,> 50,> 50,> 50,> 50,> 50,> 50,–
PGV04 (antibody),> 50,0.027,–,–,–,–,–,–,–,–,–,–,–,–,–,–,–,–,"IC50 (µg/mL), pseudovirus neutralization [1]: 0.757 µg/mL"
VRC01 (antibody),0.0371,0.06,–,0.167,0.217,–,–,–,–,–,–,–,–,–,–,–,–,–,IC50 [31]: 0.075 mg/L; IC50 [32]: 0.452 mg/L; IC50 [23]: 0.032 mg/L
